The test has as its target T1, MUC1 (UniProt P15941 24-1255, limits assumed).
T1 construct: whole, on cells; also called B16MUC1; C57MUC1
The experiment in a line: flow cytometry of Fab on C57MUC1 cells (murine + MUC1).

The values that follow come from patent publication US20040151724A1 (published 2004).

T1 sequence (P15941 24-1255 limits assumed): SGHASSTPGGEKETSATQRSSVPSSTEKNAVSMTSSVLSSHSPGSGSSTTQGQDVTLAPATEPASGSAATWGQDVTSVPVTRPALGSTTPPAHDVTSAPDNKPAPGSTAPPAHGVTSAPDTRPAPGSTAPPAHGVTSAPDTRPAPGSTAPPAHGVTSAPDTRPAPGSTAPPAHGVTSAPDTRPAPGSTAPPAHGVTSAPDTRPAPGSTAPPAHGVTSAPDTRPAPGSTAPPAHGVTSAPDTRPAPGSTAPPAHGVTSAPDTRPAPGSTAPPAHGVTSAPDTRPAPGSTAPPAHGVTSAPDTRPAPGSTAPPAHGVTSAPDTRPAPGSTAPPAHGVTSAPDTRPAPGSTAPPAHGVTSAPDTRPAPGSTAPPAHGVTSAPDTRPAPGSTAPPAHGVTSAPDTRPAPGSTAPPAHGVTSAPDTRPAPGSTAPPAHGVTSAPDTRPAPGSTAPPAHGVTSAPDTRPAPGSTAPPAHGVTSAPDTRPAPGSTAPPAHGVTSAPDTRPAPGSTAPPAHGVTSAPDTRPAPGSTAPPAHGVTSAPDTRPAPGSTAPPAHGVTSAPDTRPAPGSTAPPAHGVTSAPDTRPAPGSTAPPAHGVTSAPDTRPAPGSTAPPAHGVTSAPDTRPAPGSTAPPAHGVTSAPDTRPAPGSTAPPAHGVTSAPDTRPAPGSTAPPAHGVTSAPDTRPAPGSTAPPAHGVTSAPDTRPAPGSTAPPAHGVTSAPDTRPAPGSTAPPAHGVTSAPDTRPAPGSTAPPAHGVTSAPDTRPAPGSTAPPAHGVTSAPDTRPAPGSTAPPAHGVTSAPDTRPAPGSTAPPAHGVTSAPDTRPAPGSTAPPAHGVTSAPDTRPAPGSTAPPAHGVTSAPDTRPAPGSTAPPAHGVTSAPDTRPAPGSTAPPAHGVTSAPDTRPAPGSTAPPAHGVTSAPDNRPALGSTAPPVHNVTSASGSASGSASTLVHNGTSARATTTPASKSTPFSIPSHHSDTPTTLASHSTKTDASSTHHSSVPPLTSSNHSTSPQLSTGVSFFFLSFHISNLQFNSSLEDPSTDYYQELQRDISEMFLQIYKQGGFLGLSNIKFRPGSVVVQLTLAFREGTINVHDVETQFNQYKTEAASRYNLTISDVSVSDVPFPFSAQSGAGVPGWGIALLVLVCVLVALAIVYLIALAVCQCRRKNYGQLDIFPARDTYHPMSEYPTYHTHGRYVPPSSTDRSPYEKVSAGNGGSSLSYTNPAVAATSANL

B1: Fab 14.6.20 (Fab, V domains shown)
VH: EVQLVQSGGGLVQPGGSLRLSCTASGFIFNNYAMSWVRQAPGKGLEWVSGISTGGSSTYHADSVKGRFTISRDNFKKTLWLQMNSLTPEDAAVYYCARHANFWNGYLEKGAIDYWGQGTLVTVSS
VL: ELQMTQSPSTLSASVGDRVTITCRASHSVSGWLAWYQQKPGKAPKLLSYEPSSLESGVPSRFSGSGSGTEFTLTISSLQPEDFATYYCQESYRITSLTFGGGTKVETRR
notes: also called Fab clone 14.6.20
Consider B1, for which the binding result is reported as “no binding”.
